Source: paper PMC5490261, “The structural and functional characterization of human RecQ4 reveals insights into its helicase mechanism”

Key:
RecQ4 427-1116 = molecular target: T1, RecQ4 427-1116 (Homo sapiens, UniProt O94761 427-1116); experiment: fluorescence polarization; apparent Kd; 20 mM HEPES pH 8.0, 10 mM NaCl, 5% glycerol, 1 mM MgCl2, 0.5 mM TCEP, 0.5 nM Cy3-ssDNA; temperature not stated; details: protein: recombinant; tags: Trx-His6 removed by 3C protease; label: 5' Cy3
T1 sequence: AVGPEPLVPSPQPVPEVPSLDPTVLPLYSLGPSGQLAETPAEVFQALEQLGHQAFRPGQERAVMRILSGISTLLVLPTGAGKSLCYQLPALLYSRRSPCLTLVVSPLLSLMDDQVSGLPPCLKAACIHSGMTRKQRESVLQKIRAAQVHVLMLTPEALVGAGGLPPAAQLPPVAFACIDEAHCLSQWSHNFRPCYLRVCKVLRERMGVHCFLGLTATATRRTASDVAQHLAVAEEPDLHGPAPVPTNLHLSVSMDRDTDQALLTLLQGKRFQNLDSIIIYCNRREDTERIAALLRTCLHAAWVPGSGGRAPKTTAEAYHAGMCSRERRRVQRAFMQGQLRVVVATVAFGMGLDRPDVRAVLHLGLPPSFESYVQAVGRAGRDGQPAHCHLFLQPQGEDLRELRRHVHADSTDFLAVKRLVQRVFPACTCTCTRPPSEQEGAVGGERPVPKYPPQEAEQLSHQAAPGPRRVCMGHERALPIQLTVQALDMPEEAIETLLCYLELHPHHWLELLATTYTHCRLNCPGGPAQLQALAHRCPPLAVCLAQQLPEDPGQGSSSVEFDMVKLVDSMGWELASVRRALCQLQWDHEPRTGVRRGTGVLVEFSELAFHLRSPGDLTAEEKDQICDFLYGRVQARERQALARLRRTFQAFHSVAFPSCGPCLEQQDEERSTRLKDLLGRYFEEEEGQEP

RecQ4 427-1208 WT = molecular target: T2, RecQ4 427-1208 WT (Homo sapiens, UniProt O94761 427-1208); experiment: as above; details: protein: recombinant; tags: Trx-His6 removed by 3C protease; label: 5' Cy3
T2 sequence: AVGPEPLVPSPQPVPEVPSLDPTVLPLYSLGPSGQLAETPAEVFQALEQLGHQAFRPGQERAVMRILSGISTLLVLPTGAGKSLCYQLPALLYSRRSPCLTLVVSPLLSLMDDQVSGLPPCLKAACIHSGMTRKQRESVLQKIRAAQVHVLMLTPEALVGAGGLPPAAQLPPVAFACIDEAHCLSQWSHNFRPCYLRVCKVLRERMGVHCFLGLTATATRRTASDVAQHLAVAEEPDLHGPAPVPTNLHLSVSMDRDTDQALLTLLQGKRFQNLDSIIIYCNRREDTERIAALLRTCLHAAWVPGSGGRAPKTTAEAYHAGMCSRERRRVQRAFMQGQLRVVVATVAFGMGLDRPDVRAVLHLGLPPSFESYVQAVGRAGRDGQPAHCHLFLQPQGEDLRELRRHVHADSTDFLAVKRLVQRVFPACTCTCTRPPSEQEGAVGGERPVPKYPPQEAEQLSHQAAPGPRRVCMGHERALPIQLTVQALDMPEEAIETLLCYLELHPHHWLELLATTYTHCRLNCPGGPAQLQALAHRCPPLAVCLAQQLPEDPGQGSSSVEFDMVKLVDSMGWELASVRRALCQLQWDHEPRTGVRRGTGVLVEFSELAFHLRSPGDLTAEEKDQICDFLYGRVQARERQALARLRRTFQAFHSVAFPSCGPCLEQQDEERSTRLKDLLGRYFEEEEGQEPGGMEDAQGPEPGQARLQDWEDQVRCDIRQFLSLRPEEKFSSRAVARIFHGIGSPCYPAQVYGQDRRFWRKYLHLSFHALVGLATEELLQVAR

## CCATTCCACCCTCTATTTTTTTTTTTTTTT (ssDNA) [T3-Cy3]
RecQ4 427-1116
  Kd: 18.1 ± 0.8 nM
RecQ4 427-1208 WT
  Kd: 4.6 ± 0.4 nM
